Test results taken from IntAct's records for PubMed 21804599.

B1: "Na(+)/H(+) exchange regulatory cofactor NHE-RF1" (Homo sapiens), O14745 (parent)
chain: MSADAAAGAPLPRLCCLEKGPNGYGFHLHGEKGKLGQYIRLVEPGSPAEKAGLLAGDRLVEVNGENVEKETHQQVVSRIRAALNAVRLLVVDPETDEQLQKLGVQVREELLRAQEAPGQAEPPAAAEVQGAGNENEPREADKSHPEQRELRPRLCTMKKGPSGYGFNLHSDKSKPGQFIRSVDPDSPAEASGLRAQDRIVEVNGVCMEGKQHGDVVSAIRAGGDETKLLVVDRETDEFFKKCRVIPSQEHLNGPLPVPFTNGEIQKENSREALAEAALESPRPALVRSASSDTSEELNSQDSPPKQDSTAPSSTSSSDPILDFNISLAMAKERAHQKRSSKRAPQMDWSKKNELFSNL
partner: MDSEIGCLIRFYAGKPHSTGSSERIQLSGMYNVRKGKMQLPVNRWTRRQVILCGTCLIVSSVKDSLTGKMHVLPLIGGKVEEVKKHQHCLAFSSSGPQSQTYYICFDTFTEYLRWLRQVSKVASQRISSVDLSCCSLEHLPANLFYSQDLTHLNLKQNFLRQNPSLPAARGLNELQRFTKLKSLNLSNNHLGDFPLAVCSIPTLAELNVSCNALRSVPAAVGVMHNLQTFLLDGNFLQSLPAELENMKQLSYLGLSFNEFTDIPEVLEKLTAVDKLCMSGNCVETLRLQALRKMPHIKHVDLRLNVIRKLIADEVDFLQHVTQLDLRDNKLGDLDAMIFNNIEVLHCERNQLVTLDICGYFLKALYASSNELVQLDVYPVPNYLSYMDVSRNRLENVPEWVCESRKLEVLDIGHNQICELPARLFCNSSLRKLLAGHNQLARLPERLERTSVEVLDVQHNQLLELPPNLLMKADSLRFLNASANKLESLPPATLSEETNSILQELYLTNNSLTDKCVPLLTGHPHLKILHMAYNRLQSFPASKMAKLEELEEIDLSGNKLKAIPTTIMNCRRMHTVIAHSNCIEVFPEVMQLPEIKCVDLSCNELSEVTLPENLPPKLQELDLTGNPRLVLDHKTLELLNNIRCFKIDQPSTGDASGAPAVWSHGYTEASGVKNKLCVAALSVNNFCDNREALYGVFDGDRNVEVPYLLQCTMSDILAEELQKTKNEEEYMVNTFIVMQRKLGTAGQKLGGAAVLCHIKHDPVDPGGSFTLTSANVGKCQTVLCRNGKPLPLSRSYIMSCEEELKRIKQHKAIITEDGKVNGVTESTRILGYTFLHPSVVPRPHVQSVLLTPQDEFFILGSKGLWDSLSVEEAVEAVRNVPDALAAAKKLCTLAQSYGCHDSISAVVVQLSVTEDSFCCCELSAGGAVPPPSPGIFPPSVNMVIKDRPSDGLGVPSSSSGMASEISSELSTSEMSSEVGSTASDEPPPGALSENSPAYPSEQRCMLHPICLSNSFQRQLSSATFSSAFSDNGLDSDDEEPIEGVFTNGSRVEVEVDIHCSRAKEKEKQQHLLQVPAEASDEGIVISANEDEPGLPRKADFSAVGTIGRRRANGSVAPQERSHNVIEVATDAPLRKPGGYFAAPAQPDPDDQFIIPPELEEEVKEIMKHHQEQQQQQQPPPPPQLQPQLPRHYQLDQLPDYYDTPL
B2: "Na(+)/H(+) exchange regulatory cofactor NHE-RF1" (Homo sapiens), O14745 (parent)
chain: B1 chain
partner: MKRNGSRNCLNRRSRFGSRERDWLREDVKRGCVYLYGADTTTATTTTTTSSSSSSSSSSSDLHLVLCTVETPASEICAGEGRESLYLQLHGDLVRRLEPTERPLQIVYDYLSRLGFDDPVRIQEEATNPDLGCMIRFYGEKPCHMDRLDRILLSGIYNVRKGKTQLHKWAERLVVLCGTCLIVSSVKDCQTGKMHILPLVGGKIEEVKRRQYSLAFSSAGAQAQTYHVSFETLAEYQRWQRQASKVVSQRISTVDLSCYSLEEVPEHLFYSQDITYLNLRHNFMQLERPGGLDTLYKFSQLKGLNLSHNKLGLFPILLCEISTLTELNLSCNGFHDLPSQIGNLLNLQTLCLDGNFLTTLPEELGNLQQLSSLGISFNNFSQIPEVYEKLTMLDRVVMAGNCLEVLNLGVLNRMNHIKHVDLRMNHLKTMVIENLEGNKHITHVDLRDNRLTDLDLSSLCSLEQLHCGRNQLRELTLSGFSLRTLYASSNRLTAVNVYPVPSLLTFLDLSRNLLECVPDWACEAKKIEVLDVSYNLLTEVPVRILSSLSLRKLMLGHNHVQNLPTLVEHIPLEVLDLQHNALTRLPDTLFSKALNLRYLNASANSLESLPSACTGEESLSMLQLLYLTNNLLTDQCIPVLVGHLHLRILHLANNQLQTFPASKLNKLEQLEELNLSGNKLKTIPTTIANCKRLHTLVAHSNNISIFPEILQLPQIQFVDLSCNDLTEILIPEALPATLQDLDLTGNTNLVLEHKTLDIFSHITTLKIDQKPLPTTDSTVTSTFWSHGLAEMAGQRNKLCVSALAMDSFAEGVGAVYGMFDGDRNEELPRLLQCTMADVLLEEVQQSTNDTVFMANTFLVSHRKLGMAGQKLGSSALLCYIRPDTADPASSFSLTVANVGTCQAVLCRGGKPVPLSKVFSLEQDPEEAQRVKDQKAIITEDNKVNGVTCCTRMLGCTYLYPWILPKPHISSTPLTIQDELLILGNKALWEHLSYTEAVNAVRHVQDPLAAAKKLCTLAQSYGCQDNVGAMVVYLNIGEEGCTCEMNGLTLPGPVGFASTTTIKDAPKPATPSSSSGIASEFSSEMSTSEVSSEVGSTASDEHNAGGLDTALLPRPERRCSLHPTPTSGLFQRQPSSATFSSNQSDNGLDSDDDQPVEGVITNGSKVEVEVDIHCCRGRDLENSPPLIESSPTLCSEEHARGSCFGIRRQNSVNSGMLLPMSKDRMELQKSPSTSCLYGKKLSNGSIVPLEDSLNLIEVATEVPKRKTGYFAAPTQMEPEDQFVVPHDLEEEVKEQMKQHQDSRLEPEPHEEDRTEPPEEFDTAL

Variants of: B1
Settings: with PHLPP1, O60346-2

Row | effect of a mutation on the interaction | Variant
1 | disrupting interaction | MSADAAAGAPLPRLCCLEKGPNGYGFHLHGEKGKLGRYIRLVEPGSPAEKAGLLAGDRLVEVNGENVEKETHQQVVSRIRAALNAVRLLVVDPETDEQLQKLGVQVREELLRAQEAPGQAEPPAAAEVQGAGNENEPREADKSHPEQRELRPRLCTMKKGPSGYGFNLHSDKSKPGQFIRSVDPDSPAEASGLRAQDRIVEVNGVCMEGKQHGDVVSAIRAGGDETKLLVVDRETDEFFKKCRVIPSQEHLNGPLPVPFTNGEIQKENSREALAEAALESPRPALVRSASSDTSEELNSQDSPPKQDSTAPSSTSSSDPILDFNISLAMAKERAHQKRSSKRAPQMDWSKKNELFSNL [Q37R]

Variants of: B2
Settings: with phlp2_human PHLPP2, Q6ZVD8

Row | effect of a mutation on the interaction | Variant
2 | disrupting interaction | MSADAAAGAPLPRLCCLEKGPNGYGFHLHGEKGKLGRYIRLVEPGSPAEKAGLLAGDRLVEVNGENVEKETHQQVVSRIRAALNAVRLLVVDPETDEQLQKLGVQVREELLRAQEAPGQAEPPAAAEVQGAGNENEPREADKSHPEQRELRPRLCTMKKGPSGYGFNLHSDKSKPGQFIRSVDPDSPAEASGLRAQDRIVEVNGVCMEGKQHGDVVSAIRAGGDETKLLVVDRETDEFFKKCRVIPSQEHLNGPLPVPFTNGEIQKENSREALAEAALESPRPALVRSASSDTSEELNSQDSPPKQDSTAPSSTSSSDPILDFNISLAMAKERAHQKRSSKRAPQMDWSKKNELFSNL [Q37R]
